B1: Pituitary-specific positive transcription factor 1, residues 130 to 198; numbered along this chain, P28069 (parent)
chain: RELEKFANEFKVRRIKLGYTQTNVGEALAAVHGSEFSQTTICRFENLQLSFKNACKLKAILSKWLEEAE
B2: Membrane-associated guanylate kinase, WW and PDZ domain-containing protein 2, residues 601 to 682; numbered along this chain, Q86UL8 (parent)
chain: AELMTLTIVKGAQGFGFTIADSPTGQRVKQILDIQGCPGLCEGDLIVEINQQNVQNLSHTEVVDILKDCPIGSETSLIIHRG

± gives the uncertainty stated by the source.

In the first series the parent is B1. Description: abundance fitness (aPCA) (normalised: wild type 0, dead -1); higher = more abundant; growth selection in yeast, the domain comes from the species named. Conditions: Homo sapiens.
As for RELAKFANEFKVRRIKLGYTQTNVGEALAAVHGSEFSQTTICRFENLQLSFKNACKLKAILSKWLEEAE [E4A], the abundance fitness was 0.043 ± 0.084.

For the variant RELCKFANEFKVRRIKLGYTQTNVGEALAAVHGSEFSQTTICRFENLQLSFKNACKLKAILSKWLEEAE [E4C], the abundance fitness is -0.552 ± 0.21.

Turning to REFEKFANEFKVRRIKLGYTQTNVGEALAAVHGSEFSQTTICRFENLQLSFKNACKLKAILSKWLEEAE [L3F], the abundance fitness was -0.472 ± 0.12.

In the case of REHEKFANEFKVRRIKLGYTQTNVGEALAAVHGSEFSQTTICRFENLQLSFKNACKLKAILSKWLEEAE [L3H], the abundance fitness was -0.611 ± 0.18.

For REIEKFANEFKVRRIKLGYTQTNVGEALAAVHGSEFSQTTICRFENLQLSFKNACKLKAILSKWLEEAE [L3I], the abundance fitness was -0.194 ± 0.22.

Consider REVEKFANEFKVRRIKLGYTQTNVGEALAAVHGSEFSQTTICRFENLQLSFKNACKLKAILSKWLEEAE [L3V], for which the abundance fitness was -0.468 ± 0.082.

For the variant REREKFANEFKVRRIKLGYTQTNVGEALAAVHGSEFSQTTICRFENLQLSFKNACKLKAILSKWLEEAE [L3R], the abundance fitness was -0.751 ± 0.24.

As for REGEKFANEFKVRRIKLGYTQTNVGEALAAVHGSEFSQTTICRFENLQLSFKNACKLKAILSKWLEEAE [L3G], the abundance fitness is -0.571 ± 0.11.

As for REMEKFANEFKVRRIKLGYTQTNVGEALAAVHGSEFSQTTICRFENLQLSFKNACKLKAILSKWLEEAE [L3M], the abundance fitness is -0.469 ± 0.13.

As to REEEKFANEFKVRRIKLGYTQTNVGEALAAVHGSEFSQTTICRFENLQLSFKNACKLKAILSKWLEEAE [L3E], the abundance fitness is -0.725 ± 0.29.

In the case of RETEKFANEFKVRRIKLGYTQTNVGEALAAVHGSEFSQTTICRFENLQLSFKNACKLKAILSKWLEEAE [L3T], the abundance fitness is -0.867 ± 0.4.

For REWEKFANEFKVRRIKLGYTQTNVGEALAAVHGSEFSQTTICRFENLQLSFKNACKLKAILSKWLEEAE [L3W], the abundance fitness was -0.715 ± 0.16.

For the variant REKEKFANEFKVRRIKLGYTQTNVGEALAAVHGSEFSQTTICRFENLQLSFKNACKLKAILSKWLEEAE [L3K], the abundance fitness was -0.718 ± 0.26.

Turning to RESEKFANEFKVRRIKLGYTQTNVGEALAAVHGSEFSQTTICRFENLQLSFKNACKLKAILSKWLEEAE [L3S], the abundance fitness was -0.855 ± 0.19.

For the variant REYEKFANEFKVRRIKLGYTQTNVGEALAAVHGSEFSQTTICRFENLQLSFKNACKLKAILSKWLEEAE [L3Y], the abundance fitness was -0.22 ± 0.13.

For RECEKFANEFKVRRIKLGYTQTNVGEALAAVHGSEFSQTTICRFENLQLSFKNACKLKAILSKWLEEAE [L3C], the abundance fitness is -0.953 ± 0.44.

On to REDEKFANEFKVRRIKLGYTQTNVGEALAAVHGSEFSQTTICRFENLQLSFKNACKLKAILSKWLEEAE [L3D], for which the abundance fitness was -0.794 ± 0.22.

Turning to RWLEKFANEFKVRRIKLGYTQTNVGEALAAVHGSEFSQTTICRFENLQLSFKNACKLKAILSKWLEEAE [E2W], the abundance fitness is -0.541 ± 0.094.

Turning to RCLEKFANEFKVRRIKLGYTQTNVGEALAAVHGSEFSQTTICRFENLQLSFKNACKLKAILSKWLEEAE [E2C], the abundance fitness is -0.984 ± 0.32.

With RQLEKFANEFKVRRIKLGYTQTNVGEALAAVHGSEFSQTTICRFENLQLSFKNACKLKAILSKWLEEAE [E2Q], the abundance fitness was -0.523 ± 0.16.

As for RYLEKFANEFKVRRIKLGYTQTNVGEALAAVHGSEFSQTTICRFENLQLSFKNACKLKAILSKWLEEAE [E2Y], the abundance fitness was -0.651 ± 0.27.

On to RDLEKFANEFKVRRIKLGYTQTNVGEALAAVHGSEFSQTTICRFENLQLSFKNACKLKAILSKWLEEAE [E2D], for which the abundance fitness was -0.109 ± 0.2.

For RGLEKFANEFKVRRIKLGYTQTNVGEALAAVHGSEFSQTTICRFENLQLSFKNACKLKAILSKWLEEAE [E2G], the abundance fitness was -0.373 ± 0.072.

On to RLLEKFANEFKVRRIKLGYTQTNVGEALAAVHGSEFSQTTICRFENLQLSFKNACKLKAILSKWLEEAE [E2L], for which the abundance fitness was -0.672 ± 0.14.

For the variant RTLEKFANEFKVRRIKLGYTQTNVGEALAAVHGSEFSQTTICRFENLQLSFKNACKLKAILSKWLEEAE [E2T], the abundance fitness was -0.334 ± 0.12.

As to RKLEKFANEFKVRRIKLGYTQTNVGEALAAVHGSEFSQTTICRFENLQLSFKNACKLKAILSKWLEEAE [E2K], the abundance fitness is -0.471 ± 0.24.

Consider RHLEKFANEFKVRRIKLGYTQTNVGEALAAVHGSEFSQTTICRFENLQLSFKNACKLKAILSKWLEEAE [E2H], for which the abundance fitness was -0.968 ± 0.39.

For the variant RILEKFANEFKVRRIKLGYTQTNVGEALAAVHGSEFSQTTICRFENLQLSFKNACKLKAILSKWLEEAE [E2I], the abundance fitness is -0.676 ± 0.15.

For RRLEKFANEFKVRRIKLGYTQTNVGEALAAVHGSEFSQTTICRFENLQLSFKNACKLKAILSKWLEEAE [E2R], the abundance fitness was -0.624 ± 0.091.

Turning to RPLEKFANEFKVRRIKLGYTQTNVGEALAAVHGSEFSQTTICRFENLQLSFKNACKLKAILSKWLEEAE [E2P], the abundance fitness is -0.462 ± 0.19.

In the case of RALEKFANEFKVRRIKLGYTQTNVGEALAAVHGSEFSQTTICRFENLQLSFKNACKLKAILSKWLEEAE [E2A], the abundance fitness was -0.412 ± 0.087.

On to RVLEKFANEFKVRRIKLGYTQTNVGEALAAVHGSEFSQTTICRFENLQLSFKNACKLKAILSKWLEEAE [E2V], for which the abundance fitness is -0.895 ± 0.18.

RSLEKFANEFKVRRIKLGYTQTNVGEALAAVHGSEFSQTTICRFENLQLSFKNACKLKAILSKWLEEAE [E2S]: the abundance fitness was -0.443 ± 0.069.

RNLEKFANEFKVRRIKLGYTQTNVGEALAAVHGSEFSQTTICRFENLQLSFKNACKLKAILSKWLEEAE [E2N]: the abundance fitness is -0.518 ± 0.19.

On to VELEKFANEFKVRRIKLGYTQTNVGEALAAVHGSEFSQTTICRFENLQLSFKNACKLKAILSKWLEEAE [R1V], for which the abundance fitness is -0.441 ± 0.14.

For KELEKFANEFKVRRIKLGYTQTNVGEALAAVHGSEFSQTTICRFENLQLSFKNACKLKAILSKWLEEAE [R1K], the abundance fitness was found to be 0.376 ± 0.14.

As to IELEKFANEFKVRRIKLGYTQTNVGEALAAVHGSEFSQTTICRFENLQLSFKNACKLKAILSKWLEEAE [R1I], the abundance fitness is -0.508 ± 0.15.

For the variant TELEKFANEFKVRRIKLGYTQTNVGEALAAVHGSEFSQTTICRFENLQLSFKNACKLKAILSKWLEEAE [R1T], the abundance fitness was -0.371 ± 0.19.

Take EELEKFANEFKVRRIKLGYTQTNVGEALAAVHGSEFSQTTICRFENLQLSFKNACKLKAILSKWLEEAE [R1E]: the abundance fitness is -0.348 ± 0.48.

FELEKFANEFKVRRIKLGYTQTNVGEALAAVHGSEFSQTTICRFENLQLSFKNACKLKAILSKWLEEAE [R1F]: the abundance fitness was -0.128 ± 0.23.

NELEKFANEFKVRRIKLGYTQTNVGEALAAVHGSEFSQTTICRFENLQLSFKNACKLKAILSKWLEEAE [R1N]: the abundance fitness is -0.37 ± 0.17.

Take MELEKFANEFKVRRIKLGYTQTNVGEALAAVHGSEFSQTTICRFENLQLSFKNACKLKAILSKWLEEAE [R1M]: the abundance fitness was -0.712 ± 0.26.

In the case of LELEKFANEFKVRRIKLGYTQTNVGEALAAVHGSEFSQTTICRFENLQLSFKNACKLKAILSKWLEEAE [R1L], the abundance fitness is -0.306 ± 0.37.

With DELEKFANEFKVRRIKLGYTQTNVGEALAAVHGSEFSQTTICRFENLQLSFKNACKLKAILSKWLEEAE [R1D], the abundance fitness was -0.187 ± 0.099.

Another series covers variants of B2. The series is described as above. The conditions noted are these: Homo sapiens.
On to I79K, for which the abundance fitness is -0.534 ± 0.16.

Take I79F: the abundance fitness is -0.046 ± 0.17.

For the variant I79L, the abundance fitness stood at 0.036 ± 0.077.

For the variant I79Q, the abundance fitness is -0.73 ± 0.27.

Take I79A: the abundance fitness was -0.214 ± 0.14.

Regarding I79V, the abundance fitness was -0.102 ± 0.073.

I79R: the abundance fitness was -0.24 ± 0.064.

Consider I79G, for which the abundance fitness is -0.42 ± 0.11.

With I79S, the abundance fitness is -0.314 ± 0.11.

For I79M, the abundance fitness was -0.005 ± 0.16.

In the case of I79T, the abundance fitness was -0.063 ± 0.12.

With I79W, the abundance fitness was -0.467 ± 0.17.

For the variant I79C, the abundance fitness was -0.115 ± 0.12.

For the variant E74V, the abundance fitness is -0.122 ± 0.12.

Take E74K: the abundance fitness was -0.23 ± 0.34.

Regarding E74P, the abundance fitness is 0.149 ± 0.12.

Take E74C: the abundance fitness is -0.322 ± 0.17.

Regarding E74R, the abundance fitness amounted to 0.013 ± 0.069.

In the case of E74I, the abundance fitness is -0.214 ± 0.16.

Consider E74G, for which the abundance fitness was -0.153 ± 0.1.

Take E74H: the abundance fitness came out at 0.241 ± 0.47.

For the variant E74W, the abundance fitness is -0.069 ± 0.096.

With E74S, the abundance fitness was -0.16 ± 0.1.

Consider E74A, for which the abundance fitness is -0.185 ± 0.088.

Regarding E74D, the abundance fitness worked out at 0.137 ± 0.15.

On to E74Q, for which the abundance fitness is -0.074 ± 0.16.

As to E74T, the abundance fitness is -0.422 ± 0.38.

With E74M, the abundance fitness amounted to 0.062 ± 0.15.

Turning to T75P, the abundance fitness was -0.164 ± 0.078.

In the case of T75K, the abundance fitness was -0.133 ± 0.11.

With T75Y, the abundance fitness was -0.151 ± 0.12.

For the variant T75N, the abundance fitness was -0.115 ± 0.19.

With T75S, the abundance fitness was -0.331 ± 0.082.

For T75M, the abundance fitness turned out to be 0.047 ± 0.11.

As for T75D, the abundance fitness was -0.09 ± 0.21.

T75L: the abundance fitness was -0.045 ± 0.072.

As for T75V, the abundance fitness was 0.013 ± 0.091.

Regarding T75C, the abundance fitness is -0.331 ± 0.2.

As to T75Q, the abundance fitness was -0.148 ± 0.14.

Consider T75E, for which the abundance fitness is -0.072 ± 0.11.

Consider T75I, for which the abundance fitness was -0.101 ± 0.4.

On to T75A, for which the abundance fitness was determined as 0.101 ± 0.079.

Take T75G: the abundance fitness is -0.08 ± 0.063.

In the case of T75R, the abundance fitness was -0.113 ± 0.075.

On to T75F, for which the abundance fitness was -0.02 ± 0.16.

R81H: the abundance fitness came out at 0.048 ± 0.23.

Regarding R81M, the abundance fitness was -0.387 ± 0.12.

With R81V, the abundance fitness is -0.252 ± 0.11.

Turning to R81G, the abundance fitness was found to be 0.017 ± 0.067.

As to R81N, the abundance fitness was -0.144 ± 0.37.

R81P: the abundance fitness turned out to be 0.039 ± 0.083.

R81I: the abundance fitness was -0.668 ± 0.25.
